Experimental data: patent publication US20140363428A1 (Chugai, published 2014)
Positions count from the first letter of the chain named.

B1: IgG1-F1348 (antibody)
heavy: QVQLQESGPGLVKPSETLSLTCAVSGHSISHDHAWSWVRQPPGEGLEWIGFISYSGITNYNPSLQGRVTISRDNSKNTLYLQMNSLRAEDTAVYYCARSLARTTAMDYWGEGTLVTVSSASTKGPSVFPLAPSSKSTSGGTAALGCLVKDYFPEPVTVSWNSGALTSGVHTFPAVLQSSGLYSLSSVVTVPSSSLGTQTYICNVNHKPSNTKVDKKVEPKSCDKTHTCPPCPAPELRRGPKVFLFPPKPKDTLYITREPEVTCVVVDVSHEDPEVKFNWYVDGVEVHNAKTKPREEQYNSTYRVVSVLTVLHQDWLNGKEYKCKVSNKALPAPIEKTISKAKGQPREPQVYTLPPSRDELTKNQVSLTCLVKGFYPSDIAVEWESNGQPENNYKTTPPVLDSDGSFFLYSKLTVDKSRWQQGNVFSCSVMHEALHYHVTKKELSLSP
light: not shown
notes: EU numbering; copies: 2 + 2
B2: IgG1-F1351 (antibody)
heavy: B1 heavy with R238G, T256S, E258T, V438F, K440R
light: not shown
notes: EU numbering; copies: 2 + 2
B3: IgG1-F1350 (antibody)
heavy: B1 heavy with R238G, T256S, E258T, V438F
light: not shown
notes: EU numbering; copies: 2 + 2
B4: IgG1-F1349 (antibody)
heavy: B1 heavy with R238G, T256S, E258T, V438T, K440R
light: not shown
notes: EU numbering; copies: 2 + 2
B5: IgG1-F1352 (antibody)
heavy: B1 heavy with R238G, T256S, E258T, H435D, V438T
light: not shown
notes: EU numbering; copies: 2 + 2
B6: IgG1-F1125 (antibody)
heavy: B1 heavy with R237L, R238G, K241S, T256S, E258T, T309Q, K440Q, E442S
light: not shown
notes: VH3-IgG1 with Fc substitutions (EU numbering) + L(WT)-CK
B7: IgG1-F1108 (antibody)
heavy: B1 heavy with R237L, R238G, K241S, T256S, E258T, V424K, K440Q, E442S
light: not shown
notes: as for B6
B8: IgG1-F1077 (antibody)
heavy: B1 heavy with R237L, R238G, K241S, K250N, T256S, E258T, V438Y, K440Q, E442S
light: not shown
notes: as for B6
B9: IgG1-F1065 (antibody)
heavy: B1 heavy with R237L, R238G, K241S, T256S, E258T, V424R, K440Q, E442S
light: not shown
notes: as for B6
B10: IgG1-F1101 (antibody)
heavy: B1 heavy with R237L, R238G, K241D, T256S, E258T, T309Q, Q313A, V438Y, K440Q, E442S
light: not shown
notes: as for B6
B11: IgG1-F1080 (antibody)
heavy: B1 heavy with R237L, R238G, K241S, T256S, E258T, S426N, V438Y, K440Q, E442S
light: not shown
notes: as for B6
B12: IgG1-F1076 (antibody)
heavy: B1 heavy with R237L, R238G, K241D, T256S, E258T, K328D, L330Y, K440Q, E442S
light: not shown
notes: as for B6
B13: IgG1-F1063 (antibody)
heavy: B1 heavy with R237L, R238G, K241S, T256S, E258T, P389S, K440Q, E442S
light: not shown
notes: as for B6
B14: IgG1-F1100 (antibody)
heavy: B1 heavy with R237L, R238G, K241D, T256S, E258T, K328D, L330Y, V438Y, K440Q, E442S
light: not shown
notes: as for B6
B15: IgG1-F1083 (antibody)
heavy: B1 heavy with R237L, R238G, K241S, T256S, E258T, V438Y, K440Q, E442N
light: not shown
notes: as for B6
B16: IgG1-F1079 (antibody)
heavy: B1 heavy with R237L, R238G, K241S, T256S, E258T, E384N, N386S, V438Y, K440Q, E442S
light: not shown
notes: as for B6
B17: IgG1-F1107 (antibody)
heavy: B1 heavy with R237L, R238G, K241S, T256S, E258T, V424D, K440Q, E442S
light: not shown
notes: as for B6
B18: IgG1-F1059 (antibody)
heavy: B1 heavy with R237L, R238G, K241S, T256S, E258T, Q388R, K440Q, E442S
light: not shown
notes: as for B6
B19: IgG1-F1097 (antibody)
heavy: B1 heavy with R237L, R238G, K241S, T256S, E258T, G387N, P389S, V438Y, K440Q, E442S
light: not shown
notes: as for B6
B20: IgG1-F1066 (antibody)
heavy: B1 heavy with R237L, R238G, K241S, T256S, E258T, V424S, K440Q, E442S
light: not shown
notes: as for B6
B21: IgG1-F1098 (antibody)
heavy: B1 heavy with R237L, R238G, K241D, T256S, E258T, V438Y, K440Q, E442S
light: not shown
notes: as for B6
B22: IgG1-F1069 (antibody)
heavy: B1 heavy with R237L, R238G, K241S, T256S, E258T, K440E, E442S
light: not shown
notes: as for B6
B23: IgG1-F1071 (antibody)
heavy: B1 heavy with R237L, R238G, K241S, T256S, E258T, K440S, E442S
light: not shown
notes: as for B6
B24: IgG1-F1073 (antibody)
heavy: B1 heavy with R237L, R238G, K241S, T256S, E258T, K440Q, E442R
light: not shown
notes: as for B6
B25: IgG1-F1103 (antibody)
heavy: QVQLQESGPGLVKPSETLSLTCAVSGHSISHDHAWSWVRQPPGEGLEWIGFISYSGITNYNPSLQGRVTISRDNSKNTLYLQMNSLRAEDTAVYYCARSLARTTAMDYWGEGTLVTVSSASTKGPSVFPLAPSSKSTSGGTAALGCLVKDYFPEPVTVSWNSGALTSGVHTFPAVLQSSGLYSLSSVVTVPSSSLGTQTYICNVNHKPSNTKVDKKVEPKSCDKTHTCPPCPAPELLGGPDVFLFPPKPKDTLYISRTPEVTCVVVDVSHEDPEVKFNWYVDGVEVHNAKTKPREEQYNSTYRVVSVLQVLHADWLNGKEYKCKVSNDAYPAPIEKTISKAKGQPREPQVYTLPPSRDELTKNQVSLTCLVKGFYPSDIAVEWESNGQPENNYKTTPPVLDSDGSFFLYSKLTVDKSRWQQGNVFSCSVMHEALHYHYTQKSLSLSP
light: not shown
notes: as for B6
B26: IgG1-F1096 (antibody)
heavy: B25 heavy with D241S, Q309T, A313Q, D328K, Y330L, Q388T
light: not shown
notes: as for B6
B27: IgG1-F1068 (antibody)
heavy: B25 heavy with D241S, Q309T, A313Q, D328K, Y330L, S426R, Y438V
light: not shown
notes: as for B6
B28: IgG1-F1067 (antibody)
heavy: B25 heavy with D241S, Q309T, A313Q, D328K, Y330L, S426E, Y438V
light: not shown
notes: as for B6
B29: IgG1-F1095 (antibody)
heavy: B25 heavy with D241S, Q309T, A313Q, D328K, Y330L, S385N, G387S
light: not shown
notes: as for B6
B30: IgG1-F1099 (antibody)
heavy: B25 heavy with D241S, Q309T, A313Q
light: not shown
notes: as for B6
B31: IgG1-F1074 (antibody)
heavy: B25 heavy with Q309T, A313Q, D328K, Y330L, Y438V
light: not shown
notes: as for B6
B32: IgG1-F1105 (antibody)
heavy: B25 heavy with D241S, Q309T, A313Q, D328K, Y330L, V424S, S426R, Y438V
light: not shown
notes: as for B6
B33: IgG1-F1058 (antibody)
heavy: B25 heavy with D241S, Q309T, A313Q, D328K, Y330L, Q388E, Y438V
light: not shown
notes: as for B6
B34: IgG1-F1102 (antibody)
heavy: B25 heavy with D241S
light: not shown
notes: as for B6
B35: IgG1-F1104 (antibody)
heavy: B25 heavy with D241S, Q309T, A313Q, D328K, Y330L, V424E, S426R, Y438V
light: not shown
notes: as for B6
B36: IgG1-F1064 (antibody)
heavy: B25 heavy with D241S, Q309T, A313Q, D328K, Y330L, V424E, Y438V
light: not shown
notes: as for B6
B37: IgG1-F1072 (antibody)
heavy: B1 heavy with R237L, R238G, K241S, T256S, E258T, K440Q
light: not shown
notes: as for B6
B38: IgG1-F1082 (antibody)
heavy: B25 heavy with D241S, Q309T, A313Q, D328K, Y330L, Q440N
light: not shown
notes: as for B6
B39: IgG1-F1106 (antibody)
heavy: B1 heavy with R237L, R238G, K241S, T256S, E258T, K440R
light: not shown
notes: as for B6
B40: IgG1-F1061 (antibody)
heavy: B25 heavy with D241S, Q309T, A313Q, D328K, Y330L, P389E, Y438V
light: not shown
notes: as for B6
B41: IgG1-F1060 (antibody)
heavy: B25 heavy with D241S, Q309T, A313Q, D328K, Y330L, Q388S, Y438V
light: not shown
notes: as for B6
B42: IgG1-F1070 (antibody)
heavy: B25 heavy with D241S, Q309T, A313Q, D328K, Y330L, Y438V, Q440R
light: not shown
notes: as for B6

What follows are binders tested against T1, soluble human FcRn (human, UniProt P55899 24-297; P61769 21-119) (assay: SPR (Biacore T100), antibody captured by protein L, hFcRn as analyte, pH 7.0, 25 C;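 note: KD calculated from fitted association and dissociation rate constants of the sensorgrams, protein L amine-coupled to the sensor chip, sodium phosphate running buffer with NaCl and Tween20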).
T1 construct: Heterodimer of FcRn alpha chain and beta2-microglobulin; also called hFcRn

Kd | Binder
55 nM | B1
160 nM | B2
120 nM | B3
340 nM | B4
390 nM | B5

These binders were tested against T2, soluble human FcRn (heterodimer of FcRn alpha chain and beta2-microglobulin) (human, UniProt P55899 24-297; P61769 21-119) (assay: SPR Biacore T100, antibody captured via protein L, hFcRn analyte, pH 7.0, 25 C;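 note: KD derived from kinetic ka and kd fits of sensorgrams, CM4 sensor chip, sodium phosphate NaCl Tween20 running buffer, buffer-only injection used as reference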).
T2 construct: Expressed in HEK293H and purified on IgG Sepharose; also called hFcRn
Procedure: An appropriate amount of protein L (ACTIGEN) was immobilized onto Sensor chip CM4 (GE Healthcare) by the amino coupling method, and the chip was allowed to capture an antibody of interest. Then, diluted FcRn solutions and running buffer (as a reference solution) were injected to allow human FcRn to interact with the antibody captured on the sensor chip. The running buffer used comprised 50 mmol/l sodium phosphate, 150 mmol/l NaCl, and 0.05% (w/v) Tween20 (pH 7.0). FcRn was diluted using each buffer. The chip was regenerated using 10 mmol/l glycine-HCl (pH 1.5). Assays were carried out exclusively at 25 degrees C. The association rate constant ka (1/Ms) and dissociation rate constant kd (1/s), both of which are kinetic parameters, were calculated based on the sensorgrams obtained in the assays, and KD (M) of each antibody for human FcRn was determined from these values. Each parameter was calculated using Biacore T100 Evaluation Software (GE Healthcare).

Kd | Binder
52 nM | B6
130 nM | B7
2000 nM | B8
140 nM | B9
66 nM | B10
320 nM | B11
130 nM | B12
140 nM | B13
240 nM | B14
350 nM | B15
340 nM | B16
120 nM | B17
140 nM | B18
280 nM | B19
140 nM | B20
260 nM | B21
140 nM | B22
120 nM | B23
130 nM | B24

Kd | Binder
61 nM | B25
270 nM | B26
170 nM | B27
130 nM | B28
290 nM | B29
260 nM | B30
130 nM | B31
150 nM | B32
130 nM | B33
65 nM | B34
180 nM | B35
130 nM | B36
130 nM | B37
280 nM | B38
140 nM | B39
120 nM | B40
140 nM | B41
170 nM | B42
